Laboratory results from patent US20040067513A1.

Biological target: OB-RL(wt)
Test: cell-based or functional assay

## Leptin (ligand)
  Reporter Activity (GT1-7 cells, leptin +; 3041 without leptin): 27000
  Reporter Activity (cells co-transfected with 84569 cDNA, leptin +; 4146 without leptin): 7600
  Reporter Activity (cells co-transfected with control vector, leptin +; 4316.5 without leptin): 25000
